Reference: PMC5508515 (Cell reports, 2016)
Like-named read-outs stand apart in the source and are kept apart here. One block for each molecule: values may come before it.

Key:
[1] = molecular target: purified human IKK1 used for single-particle cryo-EM (human) (UniProt O15111); assay: cryo-EM structure
[2] = molecular target: purified human IKK1 used for single-particle cryo-EM (human) (UniProt O15111); assay: cryo-EM structure; remark: listed apart in the source
IKK1 (1–676) (human) = IKK1 (1–676) (human) (UniProt O15111); assay: SEC
[3] = molecular target: T1, HA-IKK1 WT overexpressed in 293T cells (human), O15111; assay: SEC; details: remark: other sources report otherwise
T1 chain: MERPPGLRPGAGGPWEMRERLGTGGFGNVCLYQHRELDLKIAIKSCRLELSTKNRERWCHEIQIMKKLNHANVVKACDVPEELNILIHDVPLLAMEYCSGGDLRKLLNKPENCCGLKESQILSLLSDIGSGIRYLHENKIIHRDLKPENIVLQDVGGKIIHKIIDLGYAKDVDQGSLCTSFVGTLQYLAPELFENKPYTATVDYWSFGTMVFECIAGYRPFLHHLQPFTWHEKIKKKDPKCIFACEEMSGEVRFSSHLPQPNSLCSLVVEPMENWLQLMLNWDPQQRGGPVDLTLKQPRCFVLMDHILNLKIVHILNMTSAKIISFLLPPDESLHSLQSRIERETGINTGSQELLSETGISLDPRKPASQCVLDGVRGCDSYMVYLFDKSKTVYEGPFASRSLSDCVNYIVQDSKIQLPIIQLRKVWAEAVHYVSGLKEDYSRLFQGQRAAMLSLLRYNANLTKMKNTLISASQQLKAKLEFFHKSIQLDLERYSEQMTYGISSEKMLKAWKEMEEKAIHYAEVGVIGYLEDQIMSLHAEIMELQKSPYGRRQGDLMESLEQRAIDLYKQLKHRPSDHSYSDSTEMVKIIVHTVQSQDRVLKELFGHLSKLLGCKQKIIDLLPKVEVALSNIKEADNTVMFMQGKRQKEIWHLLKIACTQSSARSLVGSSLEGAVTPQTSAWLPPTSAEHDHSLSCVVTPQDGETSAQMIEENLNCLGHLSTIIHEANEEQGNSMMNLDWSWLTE

SEC [4] = molecular target: the molecule itself; assay: SEC
[5] = molecular target: T2, human IKK1 (residues 10–667; EE) (human), O15111; assay: crystal structure; details: remark: other sources report otherwise
T2 chain: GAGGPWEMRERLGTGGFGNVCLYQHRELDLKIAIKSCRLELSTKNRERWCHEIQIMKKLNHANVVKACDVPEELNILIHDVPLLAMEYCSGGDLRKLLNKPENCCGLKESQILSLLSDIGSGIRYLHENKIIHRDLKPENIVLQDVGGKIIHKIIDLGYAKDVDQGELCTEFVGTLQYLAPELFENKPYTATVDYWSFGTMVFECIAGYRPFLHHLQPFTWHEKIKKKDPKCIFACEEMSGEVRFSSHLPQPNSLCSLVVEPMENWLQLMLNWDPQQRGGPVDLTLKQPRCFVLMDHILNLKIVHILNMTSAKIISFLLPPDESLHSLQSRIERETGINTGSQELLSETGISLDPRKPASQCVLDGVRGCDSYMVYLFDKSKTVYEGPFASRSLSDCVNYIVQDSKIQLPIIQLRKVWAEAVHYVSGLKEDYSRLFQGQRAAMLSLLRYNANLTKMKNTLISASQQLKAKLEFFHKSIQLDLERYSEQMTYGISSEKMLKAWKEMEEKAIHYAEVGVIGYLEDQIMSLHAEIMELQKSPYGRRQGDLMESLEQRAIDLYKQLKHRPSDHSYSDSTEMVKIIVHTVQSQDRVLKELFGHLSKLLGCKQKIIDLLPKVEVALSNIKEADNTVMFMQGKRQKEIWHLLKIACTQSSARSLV

[6] = molecular target: T2, human IKK1 (residues 10–667; EE) …; assay: crystal structure; details: remark: other sources report otherwise
SEC [7] = molecular target: the molecule itself; assay: SEC; remark: listed apart in the source

- stoichiometry N [1]: 2
- percent of particles not conforming to dimers (hexamer) [2]: 2%
- stoichiometry N [2]: 6
Molecule: purified human IKK1 used for single-particle cryo-EM (from UniProt O15111 10-660) (enzyme)

- stoichiometry N (IKK1 (1–676) (human)): 2
Molecule: IKK1 (1–676) (from UniProt O15111 1-676) (domain or fragment)

- stoichiometry N [3]: 2
B1: HA-IKK1 WT overexpressed in 293T cells, O15111 1-745 (enzyme)
chain: MERPPGLRPGAGGPWEMRERLGTGGFGNVCLYQHRELDLKIAIKSCRLELSTKNRERWCHEIQIMKKLNHANVVKACDVPEELNILIHDVPLLAMEYCSGGDLRKLLNKPENCCGLKESQILSLLSDIGSGIRYLHENKIIHRDLKPENIVLQDVGGKIIHKIIDLGYAKDVDQGSLCTSFVGTLQYLAPELFENKPYTATVDYWSFGTMVFECIAGYRPFLHHLQPFTWHEKIKKKDPKCIFACEEMSGEVRFSSHLPQPNSLCSLVVEPMENWLQLMLNWDPQQRGGPVDLTLKQPRCFVLMDHILNLKIVHILNMTSAKIISFLLPPDESLHSLQSRIERETGINTGSQELLSETGISLDPRKPASQCVLDGVRGCDSYMVYLFDKSKTVYEGPFASRSLSDCVNYIVQDSKIQLPIIQLRKVWAEAVHYVSGLKEDYSRLFQGQRAAMLSLLRYNANLTKMKNTLISASQQLKAKLEFFHKSIQLDLERYSEQMTYGISSEKMLKAWKEMEEKAIHYAEVGVIGYLEDQIMSLHAEIMELQKSPYGRRQGDLMESLEQRAIDLYKQLKHRPSDHSYSDSTEMVKIIVHTVQSQDRVLKELFGHLSKLLGCKQKIIDLLPKVEVALSNIKEADNTVMFMQGKRQKEIWHLLKIACTQSSARSLVGSSLEGAVTPQTSAWLPPTSAEHDHSLSCVVTPQDGETSAQMIEENLNCLGHLSTIIHEANEEQGNSMMNLDWSWLTE

- stoichiometry N [5]: 2
- stoichiometry N [6]: 6
B3: human IKK1 (residues 10–667; EE), O15111 10-667 (domain or fragment)
chain: GAGGPWEMRERLGTGGFGNVCLYQHRELDLKIAIKSCRLELSTKNRERWCHEIQIMKKLNHANVVKACDVPEELNILIHDVPLLAMEYCSGGDLRKLLNKPENCCGLKESQILSLLSDIGSGIRYLHENKIIHRDLKPENIVLQDVGGKIIHKIIDLGYAKDVDQGELCTEFVGTLQYLAPELFENKPYTATVDYWSFGTMVFECIAGYRPFLHHLQPFTWHEKIKKKDPKCIFACEEMSGEVRFSSHLPQPNSLCSLVVEPMENWLQLMLNWDPQQRGGPVDLTLKQPRCFVLMDHILNLKIVHILNMTSAKIISFLLPPDESLHSLQSRIERETGINTGSQELLSETGISLDPRKPASQCVLDGVRGCDSYMVYLFDKSKTVYEGPFASRSLSDCVNYIVQDSKIQLPIIQLRKVWAEAVHYVSGLKEDYSRLFQGQRAAMLSLLRYNANLTKMKNTLISASQQLKAKLEFFHKSIQLDLERYSEQMTYGISSEKMLKAWKEMEEKAIHYAEVGVIGYLEDQIMSLHAEIMELQKSPYGRRQGDLMESLEQRAIDLYKQLKHRPSDHSYSDSTEMVKIIVHTVQSQDRVLKELFGHLSKLLGCKQKIIDLLPKVEVALSNIKEADNTVMFMQGKRQKEIWHLLKIACTQSSARSLV

The remaining lines, values behind:

B2: HA-IKK1 HY (H578A Y580A) overexpressed in 293T cells (enzyme, human, UniProt O15111 1-745, looked up)
chain: MERPPGLRPGAGGPWEMRERLGTGGFGNVCLYQHRELDLKIAIKSCRLELSTKNRERWCHEIQIMKKLNHANVVKACDVPEELNILIHDVPLLAMEYCSGGDLRKLLNKPENCCGLKESQILSLLSDIGSGIRYLHENKIIHRDLKPENIVLQDVGGKIIHKIIDLGYAKDVDQGSLCTSFVGTLQYLAPELFENKPYTATVDYWSFGTMVFECIAGYRPFLHHLQPFTWHEKIKKKDPKCIFACEEMSGEVRFSSHLPQPNSLCSLVVEPMENWLQLMLNWDPQQRGGPVDLTLKQPRCFVLMDHILNLKIVHILNMTSAKIISFLLPPDESLHSLQSRIERETGINTGSQELLSETGISLDPRKPASQCVLDGVRGCDSYMVYLFDKSKTVYEGPFASRSLSDCVNYIVQDSKIQLPIIQLRKVWAEAVHYVSGLKEDYSRLFQGQRAAMLSLLRYNANLTKMKNTLISASQQLKAKLEFFHKSIQLDLERYSEQMTYGISSEKMLKAWKEMEEKAIHYAEVGVIGYLEDQIMSLHAEIMELQKSPYGRRQGDLMESLEQRAIDLYKQLKHRPSDASASDSTEMVKIIVHTVQSQDRVLKELFGHLSKLLGCKQKIIDLLPKVEVALSNIKEADNTVMFMQGKRQKEIWHLLKIACTQSSARSLVGSSLEGAVTPQTSAWLPPTSAEHDHSLSCVVTPQDGETSAQMIEENLNCLGHLSTIIHEANEEQGNSMMNLDWSWLTE
- stoichiometry N (SEC [4]): 2

B4: IKK2 (1–700) (domain or fragment, UniProt O14920 1-700, looked up)
chain: MSWSPSLTTQTCGAWEMKERLGTGGFGNVIRWHNQETGEQIAIKQCRQELSPRNRERWCLEIQIMRRLTHPNVVAARDVPEGMQNLAPNDLPLLAMEYCQGGDLRKYLNQFENCCGLREGAILTLLSDIASALRYLHENRIIHRDLKPENIVLQQGEQRLIHKIIDLGYAKELDQGSLCTSFVGTLQYLAPELLEQQKYTVTVDYWSFGTLAFECITGFRPFLPNWQPVQWHSKVRQKSEVDIVVSEDLNGTVKFSSSLPYPNNLNSVLAERLEKWLQLMLMWHPRQRGTDPTYGPNGCFKALDDILNLKLVHILNMVTGTIHTYPVTEDESLQSLKARIQQDTGIPEEDQELLQEAGLALIPDKPATQCISDGKLNEGHTLDMDLVFLFDNSKITYETQISPRPQPESVSCILQEPKRNLAFFQLRKVWGQVWHSIQTLKEDCNRLQQGQRAAMMNLLRNNSCLSKMKNSMASMSQQLKAKLDFFKTSIQIDLEKYSEQTEFGITSDKLLLAWREMEQAVELCGRENEVKLLVERMMALQTDIVDLQRSPMGRKQGGTLDDLEEQARELYRRLREKPRDQRTEGDSQEMVRLLLQAIQSFEKKVRVIYTQLSKTVVCKQKALELLPKVEEVVSLMNEDEKTVVRLQEKRQKELWNLLKIACSKVRGPVSGSPDSMNASRLSQPGQLMSQPSTASNSLPE
- stoichiometry N (SEC [7]): 2
